Assay results reported in patent publication US12365732 (23ANDME, dated 2025).

T1: hu-CD96 isoform 2 on CHO cells (human, UniProt P40200 22-585)
T1 construct: also called CHO-CD96 (isoform 2); CD96-CHOs
T1 sequence: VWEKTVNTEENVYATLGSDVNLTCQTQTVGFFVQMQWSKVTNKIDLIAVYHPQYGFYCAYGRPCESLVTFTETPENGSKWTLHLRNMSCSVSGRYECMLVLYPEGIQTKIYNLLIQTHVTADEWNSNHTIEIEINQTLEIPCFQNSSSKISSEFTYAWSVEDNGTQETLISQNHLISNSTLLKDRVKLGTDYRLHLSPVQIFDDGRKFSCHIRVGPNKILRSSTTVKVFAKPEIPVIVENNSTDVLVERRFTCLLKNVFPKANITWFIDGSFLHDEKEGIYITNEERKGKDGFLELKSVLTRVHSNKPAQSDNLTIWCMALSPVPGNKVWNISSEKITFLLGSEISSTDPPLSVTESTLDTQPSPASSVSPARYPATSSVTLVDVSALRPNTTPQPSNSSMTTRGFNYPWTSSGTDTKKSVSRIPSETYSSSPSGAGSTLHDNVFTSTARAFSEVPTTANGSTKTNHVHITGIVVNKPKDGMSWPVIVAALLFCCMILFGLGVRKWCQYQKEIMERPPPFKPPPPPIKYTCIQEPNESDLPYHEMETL

T2: hu-CD96 isoform 1 on HEK293T cells (human, UniProt P40200 22-585)
T2 construct: Origene RC213845, transient expression; also called HEK293T-CD96 (iso1)
T2 sequence: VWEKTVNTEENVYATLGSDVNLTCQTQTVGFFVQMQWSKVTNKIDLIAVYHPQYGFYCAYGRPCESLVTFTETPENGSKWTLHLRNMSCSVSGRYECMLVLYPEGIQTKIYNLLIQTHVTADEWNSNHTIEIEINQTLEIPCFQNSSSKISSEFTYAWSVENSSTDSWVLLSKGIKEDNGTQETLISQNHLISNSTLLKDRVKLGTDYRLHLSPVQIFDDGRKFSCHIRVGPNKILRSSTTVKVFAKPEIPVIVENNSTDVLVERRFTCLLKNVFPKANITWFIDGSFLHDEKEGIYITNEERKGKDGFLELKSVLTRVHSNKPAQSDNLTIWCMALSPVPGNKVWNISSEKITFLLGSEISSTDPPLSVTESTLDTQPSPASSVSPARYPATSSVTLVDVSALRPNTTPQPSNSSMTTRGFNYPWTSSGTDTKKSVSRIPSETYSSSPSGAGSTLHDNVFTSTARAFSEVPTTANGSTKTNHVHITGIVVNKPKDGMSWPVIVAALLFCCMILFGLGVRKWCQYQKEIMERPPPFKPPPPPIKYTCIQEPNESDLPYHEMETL

T3: cy-CD96 (soluble, extracellular domain) (cynomolgus monkey, UniProt P40200 22-516 (human entry), biotinylated in Octet and blocking ELISA)
T3 construct: the assays name only cy-CD96; also called biotinylated cy-CD96
T3 chain: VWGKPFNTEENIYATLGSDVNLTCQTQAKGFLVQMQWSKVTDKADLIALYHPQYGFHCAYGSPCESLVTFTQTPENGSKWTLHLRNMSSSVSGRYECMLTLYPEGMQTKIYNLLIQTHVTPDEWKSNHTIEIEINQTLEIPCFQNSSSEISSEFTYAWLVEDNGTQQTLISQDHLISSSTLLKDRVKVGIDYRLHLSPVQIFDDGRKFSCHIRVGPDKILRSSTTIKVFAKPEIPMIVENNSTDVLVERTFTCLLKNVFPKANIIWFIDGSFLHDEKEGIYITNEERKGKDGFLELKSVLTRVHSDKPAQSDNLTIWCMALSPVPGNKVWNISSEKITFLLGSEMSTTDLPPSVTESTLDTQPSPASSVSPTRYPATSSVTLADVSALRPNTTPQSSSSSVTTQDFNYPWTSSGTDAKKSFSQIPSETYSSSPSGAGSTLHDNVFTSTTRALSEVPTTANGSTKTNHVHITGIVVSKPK


Tests used:
[1] = biological target: T1, hu-CD96 isoform 2 on CHO cells; test: FACS, % positive curve
Description: (§1) Isoform 1 of hu-CD96 (Origene, catalog #RC213845) was transiently expressed in HEK293T cells following standard lipofectamine or Fugene transfection protocol. […] Cells were washed, and binding was detected by incubation with anti-mouse IgG-FITC (Biolegend, catalog #406001) for 20 minutes at 4° C. Cell binding was analyzed by flow cytometry with a CytoFLEX (Beckman Coulter). Binding curves were calculated as a percentage of cells positive for bound antibody.
Isoform 2 of hu-CD96 (DNA construct: Origene, catalog #RC221005) was expressed on a single-cell-clone-derived CHO stable cell line. Binding of the anti-CD96 antibodies to the CHO cells were determined as described above with isoform 1 of hu-CD96.

[2] = biological target: T2, hu-CD96 isoform 1 on HEK293T cells; test: FACS, Ab 0.016 nM
Description: as §1

[3] = biological target: T3, cy-CD96 (soluble, extracellular domain); test: ELISA, blocks biotin-CD96 binding to coated hu-CD155-mFc
Description: The selected 5 affinity matured Fab variants of mAb1.v7 Fab were assayed for blocking of human CD155 (hu-CD155) receptor by ELISA as follows. Briefly, 96-well MAXISORP® flat bottom plates (Thermofisher, Cat #439454) were coated overnight at 4° C. with 2 µg/mL goat anti-mouse Fc (Thermofisher, Cat #31168) in PBS. After removing the coating solution, unspecific binding was blocked with PBS containing 1% bovine serum albumin (BSA) and incubation at room temperature for one hour. Plates were then washed five times in PBS with 0.05% TWEEN®-20 (wash buffer) and added […] hu-CD155-mFc in PBS for 1 hour in room temperature. During blocking period, 50 µL/well of 4 nM biotinylated hu-CD96 or 40 nM biotinylated cy-CD96 with serial dilution of the Fab variants 50 µL/well (starting at 2 µM, 1:3 dilution) for two hours at room temperature with PBS containing 0.5% BSA and 0.05% Tween 20 (ELISA buffer) in NUNC F plate (Thermofisher, Cat #269620). Then transferred the antigen-antibody mix solution 80 µL/well into hu-CD155-mFc coated wells at room temperature for 15 min. Plates were then washed with wash buffer to which was added 50 µL/well Streptavidin poly-HRP (Thermofisher, Cat #21140) diluted 1:5000 in ELISA buffer at room temperature for one hour with agitation. […] Enzymatic color development was stopped with 50 µL/well of TMB stop solution (VWR, Cat #95059-200). Plates were analyzed with a SpectraMax i3X plate reader (Molecular Devices) at 450 nm. […] The blocking $IC50$ values for the mAbv1.7 and the 5 selected affinity matured Fab variants (mAb1.v7.2, mAb1.v7.9, mAb1.v7.16, mAb1.v7.48, mAb1.v7.70) are summarized in Table 10 (above).

EC50 [1]	% positive [2]	IC50 [3]	Binder
0.38 nM	0.5%	–	9H4, purified hybridoma antibody (antibody, V domains shown, murine hybridoma IgG) VH: EVQLLETGGGLVKSGGSLKLSCAASGFTFSDYYMYWVRQTPEKRLEWVAAISDDGTYTYYPDSVKGRFTISRDNANNYLYLQMSSLKSEDTAIYYCAKAGSYDYFDVWGAGTTVTVSS VL: DIVLTQSPASLAVSLGQRAIISCKASQSVTFADTGLMHWYQQKPGQQPKLLIYRASNLEVGVPTRFSGSGSGTDFTLNIHPVEEEDVATYYCQQSREYPWTFGGGTKLEIK
0.23 nM	4.4%	–	10G1 (clone 10G1.3G8), purified hybridoma antibody (antibody, V domains shown, murine hybridoma IgG) VH: QIQLVQSGPELKKPGETVKISCKASGYPFTTYGMSWVKQAPGKGLKWMGWINTDSGVPTYADDFKGRFAFSLETSANTAYLQINSLKNEDAATYFCARNIYYGWGNFDYWGQGTILTVSS VL: DILMTQSPTTLSVTPGETVSLSCRASQDIYRNLHWYQQKSQGTPRLLIKHASDSISGIPSRFTGSGSGTDFTLSINSVKPEDEGIYYCLQGYSMPYTFGGGTKLEIK
0.11 nM	1%	–	7E5, purified hybridoma antibody (antibody, V domains shown, murine hybridoma IgG) VH: QVQLKESGPGLVAPSQSLSIICTVSGFSLTNYGIHWIRQPPGKGLEWLGIIWAGGSTNYNSALMSRLTISKDNSKSQVFLKMNSLQTNDTAIYYCARVSMMGFAYWGQGTLVTVSA VL: QAVVTQESALTTSPGETVTLTCRSSTGAVTTSNYANWVQEKPDHLFTGLIGGTNNRAPGVPARFSGSLIGDKAALTITGAQTEDEAIYFCSLWYGSHWVFGGGTKLTVL
–	–	2.17 nM	mAb1.v7.2 Fab (Fab, V domains shown, also called M34R/P52aF/T97V) VH: EVQLVQSGAEVKKPGASVKVSCKASGFTFTNNWRHWVRQAPGQGLEWIGMIHFNSGITNINEKFKNRVTMTTDTSTSTAYMELRSLRSEDTAVYYCRSDGVYEGYFDYWGQGTLVTVSS VL: DIQLTQSPSSLSASVGDRVTITCKASQNVGTAIVWYQQKPGKAPKVLIYSASTRYTGVPSRFSGSGSGTDFTLTISSLQPEDFATYYCQQYSSSPLTFGQGTKVEIK
–	–	3.18 nM	mAb1.v7.9 Fab (Fab, V domains shown, also called M34R/P52aM/T97V) VH: EVQLVQSGAEVKKPGASVKVSCKASGFTFTNNWRHWVRQAPGQGLEWIGMIHMNSGITNINEKFKNRVTMTTDTSTSTAYMELRSLRSEDTAVYYCRSDGVYEGYFDYWGQGTLVTVSS VL: DIQLTQSPSSLSASVGDRVTITCKASQNVGTAIVWYQQKPGKAPKVLIYSASTRYTGVPSRFSGSGSGTDFTLTISSLQPEDFATYYCQQYSSSPLTFGQGTKVEIK
–	–	1.42 nM	mAb1.v7.16 Fab (Fab, V domains shown, also called M34R/T97V) VH: EVQLVQSGAEVKKPGASVKVSCKASGFTFTNNWRHWVRQAPGQGLEWIGMIHPNSGITNINEKFKNRVTMTTDTSTSTAYMELRSLRSEDTAVYYCRSDGVYEGYFDYWGQGTLVTVSS VL: DIQLTQSPSSLSASVGDRVTITCKASQNVGTAIVWYQQKPGKAPKVLIYSASTRYTGVPSRFSGSGSGTDFTLTISSLQPEDFATYYCQQYSSSPLTFGQGTKVEIK
–	–	2 nM	mAb1.v7.70 Fab (Fab, V domains shown, also called N32R/P52aA/T97V) VH: EVQLVQSGAEVKKPGASVKVSCKASGFTFTNRWMHWVRQAPGQGLEWIGMIHANSGITNINEKFKNRVTMTTDTSTSTAYMELRSLRSEDTAVYYCRSDGVYEGYFDYWGQGTLVTVSS VL: DIQLTQSPSSLSASVGDRVTITCKASQNVGTAIVWYQQKPGKAPKVLIYSASTRYTGVPSRFSGSGSGTDFTLTISSLQPEDFATYYCQQYSSSPLTFGQGTKVEIK
0.52 nM	0.5%	–	mAb1.v7 IgG (humanized 12F8) (antibody, V domains shown, human IgG1 N297G) VH: EVQLVQSGAEVKKPGASVKVSCKASGFTFTNNWMHWVRQAPGQGLEWIGMIHPNSGITNINEKFKNRVTMTTDTSTSTAYMELRSLRSEDTAVYYCRSDGTYEGYFDYWGQGTLVTVSS VL: DIQLTQSPSSLSASVGDRVTITCKASQNVGTAIVWYQQKPGKAPKVLIYSASTRYTGVPSRFSGSGSGTDFTLTISSLQPEDFATYYCQQYSSSPLTFGQGTKVEIKG
–	–	4.8 nM	mAb1.v7.48 Fab (Fab, V domains shown, also called N32R/P52aH/T97V) VH: EVQLVQSGAEVKKPGASVKVSCKASGFTFTNRWMHWVRQAPGQGLEWIGMIHHNSGITNINEKFKNRVTMTTDTSTSTAYMELRSLRSEDTAVYYCRSDGVYEGYFDYWGQGTLVTVSS VL: DIQLTQSPSSLSASVGDRVTITCKASQNVGTAIVWYQQKPGKAPKVLIYSASTRYTGVPSRFSGSGSGTDFTLTISSLQPEDFATYYCQQYSSSPLTFGQGTKVEIK
